Molecular target: T1, low affinity nerve growth factor receptor, gp75 (Homo sapiens, UniProt P08138)
T1 construct: were expressed endogenously in A875 cells; endogenous in cells; host or cells: A875 cells
Test: FCS autocorrelation on A875 cells, gp75 receptor stoichiometry
Type: cell-based
Conditions: 180 nM NGF for 5 minutes
Text: Macromolecular stoichiometry, i.e., the quantitative proportions with which two macromolecules interact, of a target can be determined from autocorrelation data. Starting with Equation 4, macromolecular stoichiometry can be calculated if it is assumed that intersystem crossing and particle diffusion are independent sources of fluctuation. The first occurs in the microsecond (μs) time domain and results from intersystem crossing of fluorophores between the singlet and triplet states. The second occurs in the millisecond (ms) time domain, and results from the diffusion of particles into and out of the confocal volume. […]
where F1N′P defines the total number of fast diffusing particles, i.e., uncomplexed fluorescently tagged probes, and F2N′P defines the total number of slow diffusing complexes formed. […] S is obtained with Equation 8 for each target concentration using the parameter values obtained by fitting to Equation 6 and the calibration factor determined with Equation 7
The samples were analyzed using a fluorescence correlation spectroscopy instrument configured to distinct fluorescence emission at different wavelengths and a data processing program capable of autocorrelation, crosscorrelation, Fourier transform and Moment analyses. […]

T1 sequence (P08138 29-427): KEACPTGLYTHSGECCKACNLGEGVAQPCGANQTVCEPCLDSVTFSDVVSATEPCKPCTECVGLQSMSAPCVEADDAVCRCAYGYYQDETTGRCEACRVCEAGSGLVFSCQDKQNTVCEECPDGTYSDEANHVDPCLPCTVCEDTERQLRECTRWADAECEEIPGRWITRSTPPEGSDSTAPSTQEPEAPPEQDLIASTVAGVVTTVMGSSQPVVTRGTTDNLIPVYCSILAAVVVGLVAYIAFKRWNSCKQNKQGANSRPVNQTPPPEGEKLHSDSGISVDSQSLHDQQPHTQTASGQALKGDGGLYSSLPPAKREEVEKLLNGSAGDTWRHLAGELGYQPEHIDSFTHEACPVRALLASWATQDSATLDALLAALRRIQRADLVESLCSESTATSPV

nerve growth factor [NGF]
stoichiometry calculation for gp75 (Equation 8): 0.94

Reference: US20040082080A1, “Method of measuring molecular interactions” (priority 2002, published 2004)
